Data as given in the supplement of paper PMC11246515.
± gives the standard deviation of the averaged measurements.

Test: total protein half-life in vivo (active degradation + dilution); higher = more stable protein
[1] = E. coli NCM3722 delta-clpP delta-lon delta-hslV, growth: N-lim chemostat, doubling time 6 h
[2] = E. coli NCM3722 delta-clpP, growth: N-lim chemostat, doubling time 6 h
[3] = E. coli NCM3722 delta-hslV, growth: N-lim chemostat, doubling time 6 h
[4] = E. coli NCM3722 delta-lon, growth: N-lim chemostat, doubling time 6 h
[5] = E. coli NCM3722 delta-smpB, growth: N-lim chemostat, doubling time 6 h
[6] = wild type E. coli NCM3722, growth: C-lim chemostat, doubling time 3 h
[7] = wild type E. coli NCM3722, growth: C-lim chemostat, doubling time 6 h
[8] = wild type E. coli NCM3722, growth: C-lim chemostat, doubling time 12 h
[9] = wild type E. coli NCM3722, growth: N-lim chemostat, doubling time 6 h
[10] = wild type E. coli NCM3722, growth: P-lim chemostat, doubling time 6 h
[11] = wild type E. coli NCM3722, growth: N-lim chemostat, doubling time 12 h
[12] = wild type E. coli NCM3722, growth: P-lim chemostat, doubling time 12 h

MKTLFSRLITVIACFFIFSAAWFCLWSISLHLVERPDMAVLLFPFGLRLGLMLQCPRGYWPVLLGAEWLLIYWLTQAVGLTHFPLLMIGSLLTLLPVALISRYRHQRDWRTLLLQGAALTAAALLQSLPWLWHGKESWNALLLTLTGGLTLAPICLVFWHYLANNTWLPLGPSLVSQPINWRGRHLVWYLLLFVISLWLQLGLPDELSRFTPFCLALPIIALAWHYGWQGALIATLMNAIALIASQTWRDHPVDLLLSLLVQSLTGLLLGAGIQRLRELNQSLQKELARNQHLAERLLETEESVRRDVARELHDDIGQTITAIRTQAGIVQRLAADNASVKQSGQLIEQLSLGVYDAVRRLLGRLRPRQLDDLTLEQAIRSLMREMELEGRGIVSHLEWRIDESALSENQRVTLFRVCQEGLNNIVKHADASAVTLQGWQQDERLMLVIEDDGSGLPPGSGQQGFGLTGMRERVTALGGTLHISCLHGTRVSVSLPQRYV
total protein half-life in vivo [1]: 5.18 ± 1.4 h | total protein half-life in vivo [2]: 5.44 ± 0.69 h | total protein half-life in vivo [3]: 6.91 h | total protein half-life in vivo [4]: 6.14 ± 0.34 h | total protein half-life in vivo [5]: 5.72 ± 0.14 h | total protein half-life in vivo [6]: 2.75 ± 0.13 h | total protein half-life in vivo [7]: 4.79 ± 0.62 h | total protein half-life in vivo [8]: 10 ± 2.2 h | total protein half-life in vivo [9]: 6.09 ± 0.24 h | total protein half-life in vivo [10]: 6.19 h

MLNQKIQNPNPDELMIEVDLCYELDPYELKLDEMIEAEPEPEMIEGLPASDALTPADRYLELFEHVQSAKIFPDSKTFPDCAPKMDPLDILIRYRKVRRHRDFDLRKFVENHFWLPEVYSSEYVSDPQNSLKEHIDQLWPVLTREPQDHIPWSSLLALPQSYIVPGGRFSETYYWDSYFTMLGLAESGREDLLKCMADNFAWMIENYGHIPNGNRTYYLSRSQPPVFALMVELFEEDGVRGARRYLDHLKMEYAFWMDGAESLIPNQAYRHVVRMPDGSLLNRYWDDRDTPRDESWLEDVETAKHSGRPPNEVYRDLRAGAASGWDYSSRWLRDTGRLASIRTTQFIPIDLNAFLFKLESAIANISALKGEKETEALFRQKASARRDAVNRYLWDDENGIYRDYDWRREQLALFSAAAIVPLYVGMANHEQADRLANAVRSRLLTPGGILASEYETGEQWDKPNGWAPLQWMAIQGFKMYGDDLLGDEIARSWLKTVNQFYLEQHKLIEKYHIADGVPREGGGGEYPLQDGFGWTNGVVRRLIGLYGEP
total protein half-life in vivo [1]: 5.33 ± 0.21 h | total protein half-life in vivo [2]: 3.703 ± 0.019 h | total protein half-life in vivo [3]: 2.44 ± 0.17 h | total protein half-life in vivo [4]: 2.97 ± 0.09 h | total protein half-life in vivo [5]: 2.61 ± 0.21 h | total protein half-life in vivo [6]: 1.15 h | total protein half-life in vivo [7]: 2.95 h | total protein half-life in vivo [8]: 3.87 ± 0.14 h | total protein half-life in vivo [9]: 2.47 ± 0.1 h | total protein half-life in vivo [11]: 3.37 ± 0.04 h | total protein half-life in vivo [10]: 2.42 ± 0.43 h | total protein half-life in vivo [12]: 4.75 ± 0.37 h

MTPGGQAQIGNVDLVKQLNSAAVYRLIDQYGPISRIQIAEQSQLAPASVTKITRQLIERGLIKEVDQQASTGGRRAISIVTETRNFHAIGVRLGRHDATITLFDLSSKVLAEEHYPLPERTQQTLEHALLNAIAQFIDSYQRKLRELIAISVILPGLVDPDSGKIHYMPHIQVENWGLVEALEERFKVTCFVGHDIRSLALAEHYFGASQDCEDSILVRVHRGTGAGIISNGRIFIGRNGNVGEIGHIQVEPLGERCHCGNFGCLETIAANAAIEQRVLNLLKQGYQSRVPLDDCTIKTICKAANKGDSLASEVIEYVGRHLGKTIAIAINLFNPQKIVIAGEITEADKVLLPAIESCINTQALKAFRTNLPVVRSELDHRSAIGAFALVKRAMLNGILLQHLLEN [P0AF20]
total protein half-life in vivo [1]: 5.96 ± 0.13 h | total protein half-life in vivo [2]: 6.14 ± 0.17 h | total protein half-life in vivo [3]: 5.92 ± 0.068 h | total protein half-life in vivo [4]: 6.27 ± 0.59 h | total protein half-life in vivo [5]: 5.92 ± 1.2 h | total protein half-life in vivo [6]: 2.98 ± 0.067 h | total protein half-life in vivo [7]: 6.44 ± 0.24 h | total protein half-life in vivo [8]: 11.3 ± 1.7 h | total protein half-life in vivo [9]: 5.9 ± 0.28 h | total protein half-life in vivo [11]: 13 ± 0.3 h | total protein half-life in vivo [10]: 6.58 ± 0.7 h | total protein half-life in vivo [12]: 15.1 ± 0.32 h

MIYIGLPQWSHPKWVRLGITSLEEYARHFNCVEGNTTLYALPKPEVVLRWREQTTDDFRFCFKFPATISHQAALRHCDDLVTEFLTRMSPLAPRIGQYWLQLPATFGPRELPALWHFLDSLPGEFNYGVEVRHPQFFAKGEEEQTLNRGLHQRGVNRVILDSRPVHAARPHSEAIRDAQRKKPKVPVHAVLTATNPLIRFIGSDDMTQNRELFQVWLQKLAQWHQTTTPYLFLHTPDIAQAPELVHTLWEDLRKTLPEIGAVPAIPQQSSLF
total protein half-life in vivo [1]: 4.97 ± 2.1 h | total protein half-life in vivo [2]: 3.55 ± 0.26 h | total protein half-life in vivo [3]: 2.76 ± 0.11 h | total protein half-life in vivo [4]: 3.25 ± 0.55 h | total protein half-life in vivo [5]: 2.97 ± 0.13 h | total protein half-life in vivo [7]: 4.28 h | total protein half-life in vivo [8]: 8.14 ± 0.79 h | total protein half-life in vivo [9]: 3.16 ± 0.033 h | total protein half-life in vivo [11]: 5.52 h | total protein half-life in vivo [10]: 5.33 ± 0.11 h | total protein half-life in vivo [12]: 11.5 ± 0.46 h

MIVFSSLQIRRGVRVLLDNATATINPGQKVGLVGKNGCGKSTLLALLKNEISADGGSYTFPGSWQLAWVNQETPALPQAALEYVIDGDREYRQLEAQLHDANERNDGHAIATIHGKLDAIDAWSIRSRAASLLHGLGFSNEQLERPVSDFSGGWRMRLNLAQALICRSDLLLLDEPTNHLDLDAVIWLEKWLKSYQGTLILISHDRDFLDPIVDKIIHIEQQSMFEYTGNYSSFEVQRATRLAQQQAMYESQQERVAHLQSYIDRFRAKATKAKQAQSRIKMLERMELIAPAHVDNPFRFSFRAPESLPNPLLKMEKVSAGYGDRIILDSIKLNLVPGSRIGLLGRNGAGKSTLIKLLAGELAPVSGEIGLAKGIKLGYFAQHQLEYLRADESPIQHLARLAPQELEQKLRDYLGGFGFQGDKVTEETRRFSGGEKARLVLALIVWQRPNLLLLDEPTNHLDLDMRQALTEALIEFEGALVVVSHDRHLLRSTTDDLYLVHDRKVEPFDGDLEDYQQWLSDVQKQENQTDEAPKENANSAQARKDQKRREAELRAQTQPLRKEIARLEKEMEKLNAQLAQAEEKLGDSELYDQSRKAELTACLQQQASAKSGLEECEMAWLEAQEQLEQMLLEGQSN
total protein half-life in vivo [1]: 6.02 ± 0.54 h | total protein half-life in vivo [2]: 4.89 ± 0.15 h | total protein half-life in vivo [3]: 2.697 ± 0.016 h | total protein half-life in vivo [4]: 3.16 ± 0.084 h | total protein half-life in vivo [5]: 2.95 ± 0.13 h | total protein half-life in vivo [6]: 2.39 ± 0.12 h | total protein half-life in vivo [7]: 4.3 ± 0.48 h | total protein half-life in vivo [8]: 6.5 ± 0.051 h | total protein half-life in vivo [9]: 2.95 ± 0.15 h | total protein half-life in vivo [11]: 3.94 ± 0.5 h | total protein half-life in vivo [10]: 3.58 ± 0.25 h | total protein half-life in vivo [12]: 6.36 ± 0.25 h

MRMNVFEMEGFLRGKCVPRDLKVNETNAEYLVRKFDALEAKCAALENKIIPVSAELPPANESVLLFDANGEGWLIGWRSLWYTWGQKETGEWQWTFQVGDLENVNITHWAVMPKAPEAGA
total protein half-life in vivo [5]: 2.28 h | total protein half-life in vivo [6]: 2.52 h | total protein half-life in vivo [10]: 3.02 ± 0.68 h | total protein half-life in vivo [12]: 5.84 h
